Laboratory results published in article PMC5611513 (Frontiers in Cellular and Infection Microbiology, 2017).

Target: T1, TplEi (Pseudomonas aeruginosa, UniProt Q9I3K3)
T1 sequence: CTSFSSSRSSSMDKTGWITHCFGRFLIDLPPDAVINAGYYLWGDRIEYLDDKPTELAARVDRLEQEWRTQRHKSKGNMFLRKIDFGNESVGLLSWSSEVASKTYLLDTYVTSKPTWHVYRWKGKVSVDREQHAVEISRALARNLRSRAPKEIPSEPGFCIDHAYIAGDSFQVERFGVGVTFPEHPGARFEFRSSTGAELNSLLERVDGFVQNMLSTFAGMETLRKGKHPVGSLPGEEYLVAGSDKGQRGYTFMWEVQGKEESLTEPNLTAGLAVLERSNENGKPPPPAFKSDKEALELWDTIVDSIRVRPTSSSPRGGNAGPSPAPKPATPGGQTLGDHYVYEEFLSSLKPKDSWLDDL
Assay: ITC
Conditions: both partners purified

B1: B peptides (“L” peptide, TplE 82-108 plus EQ) (peptide)
peptide: Ac-DDLFASIGALWTWAWRGPKARQELLKAEQ-NH2
notes: source: synthetic peptide (solid-phase FMOC, Scilight Biotechnology LLC, HPLC purified)
Kd: 478 nM

B2: A peptides (“L” peptide, TplE 82-108 plus EQVEVDD) (peptide)
peptide: Ac-DDLFASIGALWTWAWRGPKARQELLKAEQVEVDD-NH2
notes: as for B1
Kd: ~125 nM
